# Assay results: IntAct's records for PubMed 31515488
# B1: Tuftelin-interacting protein 11 (Homo sapiens), Q9UBB9 (parent)
# chain: MSLSHLYRDGEGRIDDDDDERENFEITDWDLQNEFNPNRQRHWQTKEEATYGVWAERDSDDERPSFGGKRARDYSAPVNFISAGLKKGAAEEAELEDSDDEEKPVKQDDFPKDFGPRKLKTGGNFKPSQKGFAGGTKSFMDFGSWERHTKGIGQKLLQKMGYVPGRGLGKNAQGIINPIEAKQRKGKGAVGAYGSERTTQSMQDFPVVDSEEEAEEEFQKELSQWRKDPSGSKKKPKYSYKTVEELKAKGRISKKLTAPQKELSQVKVIDMTGREQKVYYSYSQISHKHNVPDDGLPLQSQQLPQSGKEAKAPGFALPELEHNLQLLIDLTEQEIIQNDRQLQYERDMVVNLFHELEKMTEVLDHEERVISNLSKVLEMVEECERRMQPDCSNPLTLDECARIFETLQDKYYEEYRMSDRVDLAVAIVYPLMKEYFKEWDPLKDCTYGTEIISKWKSLLENDQLLSHGGQDLSADAFHRLIWEVWMPFVRNIVTQWQPRNCDPMVDFLDSWVHIIPVWILDNILDQLIFPKLQKEVENWNPLTDTVPIHSWIHPWLPLMQARLEPLYSPIRSKLSSALQKWHPSDSSAKLILQPWKDVFTPGSWEAFMVKNIVPKLGMCLGELVINPHQQHMDAFYWVIDWEGMISVSSLVGLLEKHFFPKWLQVLCSWLSNSPNYEEITKWYLGWKSMFSDQVLAHPSVKDKFNEALDIMNRAVSSNVGAYMQPGARENIAYLTHTERRKDFQYEAMQERREAENMAQRGIGVAASSVPMNFKDLIETKAEEHNIVFMPVIGKRHEGKQLYTFGRIVIYIDRGVVFVQGEKTWVPTSLQSLIDMAK
# partner: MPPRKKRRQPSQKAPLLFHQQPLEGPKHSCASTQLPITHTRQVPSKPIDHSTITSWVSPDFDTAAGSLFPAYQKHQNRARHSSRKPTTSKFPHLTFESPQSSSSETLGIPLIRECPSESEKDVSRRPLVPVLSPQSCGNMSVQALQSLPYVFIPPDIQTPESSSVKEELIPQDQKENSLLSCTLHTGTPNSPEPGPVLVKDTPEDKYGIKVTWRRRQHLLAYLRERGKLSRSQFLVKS
# B2: Serine/threonine-protein kinase PAK 5 (Homo sapiens), Q9P286 (parent)
# chain: MFGKKKKKIEISGPSNFEHRVHTGFDPQEQKFTGLPQQWHSLLADTANRPKPMVDPSCITPIQLAPMKTIVRGNKPCKETSINGLLEDFDNISVTRSNSLRKESPPTPDQGASSHGPGHAEENGFITFSQYSSESDTTADYTTEKYREKSLYGDDLDPYYRGSHAAKQNGHVMKMKHGEAYYSEVKPLKSDFARFSADYHSHLDSLSKPSEYSDLKWEYQRASSSSPLDYSFQFTPSRTAGTSGCSKESLAYSESEWGPSLDDYDRRPKSSYLNQTSPQPTMRQRSRSGSGLQEPMMPFGASAFKTHPQGHSYNSYTYPRLSEPTMCIPKVDYDRAQMVLSPPLSGSDTYPRGPAKLPQSQSKSGYSSSSHQYPSGYHKATLYHHPSLQSSSQYISTASYLSSLSLSSSTYPPPSWGSSSDQQPSRVSHEQFRAALQLVVSPGDPREYLANFIKIGEGSTGIVCIATEKHTGKQVAVKKMDLRKQQRRELLFNEVVIMRDYHHDNVVDMYSSYLVGDELWVVMEFLEGGALTDIVTHTRMNEEQIATVCLSVLRALSYLHNQGVIHRDIKSDSILLTSDGRIKLSDFGFCAQVSKEVPKRKSLVGTPYWMAPEVISRLPYGTEVDIWSLGIMVIEMIDGEPPYFNEPPLQAMRRIRDSLPPRVKDLHKVSSVLRGFLDLMLVREPSQRATAQELLGHPFLKLAGPPSCIVPLMRQYRHH
# partner: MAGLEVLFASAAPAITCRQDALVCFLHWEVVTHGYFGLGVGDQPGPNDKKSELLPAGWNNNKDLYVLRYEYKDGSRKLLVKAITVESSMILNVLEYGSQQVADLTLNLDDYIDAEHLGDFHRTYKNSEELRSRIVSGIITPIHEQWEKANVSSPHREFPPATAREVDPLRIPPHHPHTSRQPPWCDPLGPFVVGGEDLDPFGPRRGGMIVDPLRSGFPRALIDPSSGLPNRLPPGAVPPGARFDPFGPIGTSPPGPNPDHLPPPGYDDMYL
# B3: IQ motif and ubiquitin-like domain-containing protein (Homo sapiens), Q8NA54 (parent)
# chain: MSNQQEKYEAQNIVNSTEESDDAFDTVTIPVPSEEPQESDQTEEHESGIEQFSESHAIHVEEQSDQSFSSLEPDNEQLMEEVISPRQVSYTPQHHEKQYAMQRPNDDSLAFLDKIKSVKESLQESVEDSLATVKVVLIPVGQEIVIPFKVDTILKYLKDHFSHLLGIPHSVLQIRYSGKILKNNETLVQHGVKPQEIVQVEIFSTNPDLYPVRRIDGLTDVSQIITVTVQTGLDQYQQVPVEIVKSDFHKPFLGGFRHKVTGVEYHNAGTQTVPKRIPERLSIFCRDTQTVFQKKNLQQTTNTTSTQMTNIGVYVSNMTDKLVTPGKYFSAAEYHAQRLKAVIVIQTYYRQWHAKIFVENLRRQKSLRLEWETQQELRKIREKEEWIKLDYHRRHNPKTNEDFEFLYNALEFWRQEELTRINQSFTGAERKAALCELLEKETQIIASIGRHRYIAYMANQEAAIQAFLDKCSAPKIWRTPNGKTIEMDTQFTIRARELQNIYKCIMLKNISQDERLDVLLTLKHTVKEHECKLTQEILELIDREVDLMMRGVKHHNLEGLRKRIATLFFHYIKTPLFNPEVAKYLKVPQDPLKFYKKIYFCHSCQLYLPSTEFSVSSTSRRIYRCRNCINLQNEAQKRESFLKYKCLLQQLYYTEADYEDDSKIAFLMQLQDIQYLTENIWASQSVLSACDNLSDLVMVRWNKSLEWSPWNCILLTKDEAAAHLKLTSIEEGYERSFIHKIKHKHILAKNYFSQVPVLASFILDDGEIDEIRWKYHSDTTPKIIESQRPPH
# partner: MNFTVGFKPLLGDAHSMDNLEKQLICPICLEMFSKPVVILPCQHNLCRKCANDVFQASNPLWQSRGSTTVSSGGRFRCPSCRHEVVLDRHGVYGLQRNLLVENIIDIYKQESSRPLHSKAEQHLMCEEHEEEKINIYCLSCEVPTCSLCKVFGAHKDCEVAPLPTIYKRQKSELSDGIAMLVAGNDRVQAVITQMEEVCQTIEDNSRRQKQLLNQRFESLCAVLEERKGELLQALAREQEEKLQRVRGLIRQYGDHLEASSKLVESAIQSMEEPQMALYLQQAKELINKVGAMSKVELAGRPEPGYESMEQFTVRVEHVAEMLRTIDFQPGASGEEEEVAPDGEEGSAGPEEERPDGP
# B4: Zinc finger protein Aiolos (Homo sapiens), Q9UKT9 (parent)
# chain: MEDIQTNAELKSTQEQSVPAESAAVLNDYSLTKSHEMENVDSGEGPANEDEDIGDDSMKVKDEYSERDENVLKSEPMGNAEEPEIPYSYSREYNEYENIKLERHVVSFDSSRPTSGKMNCDVCGLSCISFNVLMVHKRSHTGERPFQCNQCGASFTQKGNLLRHIKLHTGEKPFKCHLCNYACQRRDALTGHLRTHSVEKPYKCEFCGRSYKQRSSLEEHKERCRTFLQSTDPGDTASAEARHIKAEMGSERALVLDRLASNVAKRKSSMPQKFIGEKRHCFDVNYNSSYMYEKESELIQTRMMDQAINNAISYLGAEALRPLVQTPPAPTSEMVPVISSMYPIALTRAEMSNGAPQELEKKSIHLPEKSVPSERGLSPNNSGHDSTDTDSNHEERQNHIYQQNHMVLSRARNGMPLLKEVPRSYELLKPPPICPRDSVKVINKEGEVMDVYRCDHCRVLFLDYVMFTIHMGCHGFRDPFECNMCGYRSHDRYEFSSHIARGEHRALLK
# partner: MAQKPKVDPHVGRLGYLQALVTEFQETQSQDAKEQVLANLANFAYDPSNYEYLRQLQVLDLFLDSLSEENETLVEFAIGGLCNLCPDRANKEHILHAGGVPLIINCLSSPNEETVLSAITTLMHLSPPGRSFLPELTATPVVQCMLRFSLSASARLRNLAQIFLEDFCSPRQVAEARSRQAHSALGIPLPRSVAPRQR
# B5: Tektin-4 (Homo sapiens), Q8WW24 (parent)
# chain: MAQTVPPCELPCKEYDVARNTGAYTSSGLATASFRTSKYLLEEWFQNCYARYHQAFADRDQSERQRHESQQLATETQALAQRTQQDSTRTVGERLQDTHSWKSELQREMEALAAETNLLLAQKQRLERALDATEVPFSITTDNLQCRERREHPNLVRDHVETELLKEAELIRNIQELLKRTIMQAVSQIRLNREHKETCEMDWSDKMEAYNIDETCGRHHSQSTEVQAHPYSTTFQESASTPETRAKFTQDNLCRAQRERLASANLRVLVDCILRDTSEDLRLQCDAVNLAFGRRCEELEDARYKLHHHLHKTLREITDQEHNVAALKQAIKDKEAPLHVAQTRLYLRSHRPNMELCRDAAQFRLLSEVEELNMSLTALREKLLEAEQSLRNLEDIHMSLEKDIAAMTNSLFIDRQKCMAHRTRYPTILQLAGYQ
# partner: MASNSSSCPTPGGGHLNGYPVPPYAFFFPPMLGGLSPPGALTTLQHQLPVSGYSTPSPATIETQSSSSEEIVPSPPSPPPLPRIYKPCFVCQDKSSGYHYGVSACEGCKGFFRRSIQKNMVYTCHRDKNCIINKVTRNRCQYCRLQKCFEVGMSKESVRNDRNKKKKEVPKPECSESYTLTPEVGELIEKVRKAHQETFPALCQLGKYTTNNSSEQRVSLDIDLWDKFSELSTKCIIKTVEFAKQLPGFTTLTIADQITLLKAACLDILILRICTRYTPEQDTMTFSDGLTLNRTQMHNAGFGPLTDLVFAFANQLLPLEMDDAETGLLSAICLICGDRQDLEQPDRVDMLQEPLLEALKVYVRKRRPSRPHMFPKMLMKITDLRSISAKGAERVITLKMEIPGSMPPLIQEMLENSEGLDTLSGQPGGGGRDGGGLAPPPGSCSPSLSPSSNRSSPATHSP
# Variants of: B1
# Conditions: with rhno1_human RHNO1, Q9BSD3
row,effect of a mutation on the interaction,Variant
1,with no effect,R8Q

# Variants of: B2
# Conditions: with psmf1_human PSMF1, Q92530
row,effect of a mutation on the interaction,Variant
1,with no effect,R335P

# Variants of: B3
# Conditions: with tri54_human TRIM54, Q9BYV2
row,effect of a mutation on the interaction,Variant
1,with no effect,V126M
2,disrupting interaction strength,I501F

# Variants of: B4
# Conditions: with armc7_human ARMC7, Q9H6L4
row,effect of a mutation on the interaction,Variant
1,with no effect,N119D
2,with no effect,A24V

# Variants of: B5
# Conditions: with rara_human RARA
row,Variant,effect of a mutation on the interaction
1,M374T,with no effect
2,R64W,with no effect
3,D403N,with no effect

# Next, values leading:
row,effect of a mutation on the interaction,Variant
1,disrupting interaction strength,I404T
2,with no effect,N409K
3,disrupting interaction strength,C272S
